Data on five molecules can be found in US20250296992A1 (Genmab, published 2025).

Assay [1] concerns the target T1, human SLITRK6 extracellular domain linked to his tag (human, UniProt Q9H5Y7 27-608).
T1 construct: extracellular domain; also called huSLITRK6; Hu SLITRK6; not shown: his tag
In words: ELISA, coated antigen.

The target in assay [2] is T2, cynomolgus monkey SLITRK6 extracellular domain linked to his tag (cynomolgus monkey, UniProt G7PVK4 27-608).
T2 construct: extracellular domain; also called cynoSLITRK6; Cyno SLITRK6; not shown: his tag
The assay is described as follows: ELISA, coated antigen.

Assay [3] concerns the target T3, rat SLITRK6 (rat, UniProt D3ZP44 27-607).
T3 construct: extracellular domain; not shown: his tag
In words: ELISA, coated antigen.

In assay [4] the target is T4, human SLITRK6 on cells (human, UniProt Q9H5Y7 27-841).
T4 construct: whole, on cells
The assay is described as follows: flow cytometry on RT4 cells.
Procedure: (§1) The binding activity of mAbs was evaluated by flow cytometer (Beckman, Cytoflex). Specifically, cells were incubated with 50 μL of mAbs or ADCs in series dilutions in PBS containing 1% BSA at 4° C. for 30 minutes. The cells were washed twice with PBS containing 1% BSA, stained with PE-conjugated anti human Fc in PBS containing 1% BSA and then incubated at 4° C. for 20 min. After that the cells were washed twice with PBS and analyzed by a flow cytometer.

Assay [5] deals with T4, human SLITRK6 on cells. In words: flow cytometry on RT4 cells. This is another data set of the same source.
Procedure: (§2) The binding activity of mAbs and ADCs was evaluated by flow cytometer (Beckman, Cytoflex). Specifically, cells were incubated with 50 μL of mAbs or ADCs in series dilutions in PBS containing 1% BSA at 4° C. for 30 min. The cells were washed twice with PBS containing 1% BSA, stained with PE-conjugated anti human Fc in PBS containing 1% BSA and then incubated at 4° C. for 20 min. After that the cells were washed twice with PBS and analyzed by a flow cytometer.
Assay [6] has as its target T4, human SLITRK6 on cells. The assay is described as follows: flow cytometry on SCC-4 cells.
Procedure: as §1
Assay [7] addresses T4, human SLITRK6 on cells. The assay is described as follows: flow cytometry on SW780 cells.
Procedure: as §1
Assay [8] deals with T4, human SLITRK6 on cells. The assay is described as follows: flow cytometry on SW780 cells. This is another data set of the same source.
Procedure: as §2
For assay [9], the target named is T4, human SLITRK6 on cells. In words: flow cytometry on CHP-212 cells.
Procedure: as §1
Assay [10] deals with T4, human SLITRK6 on cells. In words: flow cytometry on CHP-212 cells. This is another data set of the same source.
Procedure: as §2
Assay [11] concerns the target T4, human SLITRK6 on cells. In words: flow cytometry on RT112/84 cells.
Procedure: as §1
Assay [12] concerns the target T4, human SLITRK6 on cells. In words: flow cytometry on 293F-SLITRK6-C9 cells.
Procedure: as §2
Assay [13] addresses T4, human SLITRK6 on cells. The assay is described as follows: flow cytometry on 293F-huSLITRK6-C9 cells.
Procedure: The binding activity of mAbs was evaluated by flow cytometer (Beckman, Cytoflex). Specifically, cells were incubated with 50 μL of mAbs or ADCs in series dilutions in PBS containing 1% BSA at 4° C. for 30 min. The cells were washed twice with PBS containing 1% BSA, stained with PE-conjugated anti human Fc in PBS containing 1% BSA and then incubated at 4° C. for 20 min. After that the cells were washed twice with PBS and analyzed by a flow cytometer.
The target of assay [14] is T1, human SLITRK6 extracellular domain …. In words: BLI; antigen ECD-his on anti-his tips, antibody as analyte; 1:1 fit.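 Further: antibody at several concentrations, 180 s association then 300 s dissociation in Tris buffer at pH 6 or 7.5, rate constants from global fitting, KD computed as koff/kon.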
Procedure: (§3) Binding kinetic of antibody-antigen was characterized by the bio-layer interferometry (BLI). 100 nM of SLITRK6′ extracellular domain linked to his tag was immobilized on anti-his biosensor tips (Fortebio). The sensors were rinsed with the buffer (50 mM Tris-AcOH, pH 6 or 7.5, 0.05% v/v surfactant P20) for 10 min to remove the unbound molecules, then dipped in the antibody solutions at different concentrations for 180 seconds and interspersed by a rinsing step in the buffer solution for 300 seconds. Binding affinity was calculated using ForteBio Data Acquisition 6.3 software (ForteBio) and was derived by fitting the kinetic data to a 1:1 Langmuir binding model utilizing global fitting algorithms. The dissociation or association equilibrium constant KD was calculated from the binding rate constants as KD=koff/kₒₙ(where koff and kₒₙ represent the dissociation kinetic constant and the association kinetic constant, respectively).
Assay [15] has as its target T2, cynomolgus monkey SLITRK6 extracellular …. The description is as above.
Procedure: as §3
Assay [16] deals with T1, human SLITRK6 extracellular domain …. In words: BLI binning on huSLITRK6-his; Ab1 = row antibody first, then Ab2 (competitor) = phA108.
Procedure: (§4) Epitope binning was characterized by the bio-layer interferometry (BLI). 100 nM of human SLITRK6′ extracellular domain linked to his tag was immobilized on anti-his biosensor tips (Fortebio). The sensors were rinsed with the buffer (50 mM Tris-AcOH, pH 6 or 7.5, 0.05% v/v surfactant P20) for 30 seconds to remove the unbound molecules, then dipped in the 100 nM of antibody 1 solutions for 180 seconds and interspersed by a rinsing step in the buffer solution for 300 seconds. After that, the sensors were dipped in the 100 nM of antibody 2 solutions. The epitope cluster was calculated using ForteBio Data Acquisition 6.3 software.
Assay [17] shares this target. In words: BLI binning on huSLITRK6-his; Ab1 = row antibody first, then Ab2 (competitor) = phA290.
Procedure: as §4
For assay [18] the target is unchanged. The assay is described as follows: BLI binning on huSLITRK6-his; Ab1 = row antibody first, then Ab2 (competitor) = hu1H2-03.
Procedure: as §4
The target is the same in assay [19]. In words: BLI binning on huSLITRK6-his; Ab1 = row antibody first, then Ab2 (competitor) = hu1H2-13.
Procedure: as §4
Assay [20] shares this target. The assay is described as follows: BLI binning on huSLITRK6-his; Ab1 = row antibody first, then Ab2 (competitor) = hu14G1-03.
Procedure: as §4
The target is the same in assay [21]. The assay is described as follows: BLI binning on huSLITRK6-his; Ab1 = row antibody first, then Ab2 (competitor) = Sirtratumab.
Procedure: as §4
The target in assay [22] is T4, human SLITRK6 on cells. In words: flow cytometry on RT4 cells, PE-conjugated anti-human Fc.
Procedure: (§5) Specifically, cells were incubated with 50 μL of mAbs or ADCs in series dilutions in PBS containing 1% BSA at 4° C. for 30 min. The cells were washed twice with PBS containing 1% BSA, stained with PE-conjugated anti human Fc in PBS containing 1% BSA and then incubated at 4° C. for 20 min. After that the cells were washed twice with PBS and analyzed by a flow cytometer.
In assay [23] the target is T4, human SLITRK6 on cells. Described as above. The source holds these as a separate data set.
Procedure: as §2
Assay [24] concerns the target T4, human SLITRK6 on cells. In words: flow cytometry on SW780 cells, PE-conjugated anti-human Fc.
Procedure: as §5
Assay [25] concerns the target T4, human SLITRK6 on cells. Described as above. The source holds these as a separate data set.
Procedure: as §2
For assay [26], the target named is T4, human SLITRK6 on cells. In words: flow cytometry on CHP-212 cells, PE-conjugated anti-human Fc.
Procedure: as §5
Assay [27] concerns the target T4, human SLITRK6 on cells. In words: flow cytometry on KYSE-30 cells, PE-conjugated anti-human Fc.
Procedure: as §5
The next assay concerns the target T5, mouse SLITRK6 (mouse, UniProt Q8C110 23-609).
T5 construct: extracellular domain; also called Mu SLITRK6; not shown: his tag
In words: BLI; antigen-his on anti-his tips, antibody or ADC as analyte; 1:1 fit.

Assay [28] deals with T1, human SLITRK6 extracellular domain …. The description is as above.
Procedure: (§6) Binding kinetic of antibody-antigen was characterized by the bio-layer interferometry (BLI). 100 nM of SLITRK6′ extracellular domain linked to his tag was immobilized on anti-his biosensor tips (Fortebio). The sensors were rinsed with the buffer (50 mM Tris-AcOH, pH 6 or 7.5, 0.05% v/v surfactant P20) for 10 min to remove the unbound molecules, then dipped in the antibody solutions at different concentrations for 180 seconds and interspersed by a rinsing step in the buffer solution for 300 seconds. Binding affinity was calculated using ForteBio Data Acquisition 6.3 software (ForteBio) and was derived by fitting the kinetic data to a 1:1 Langmuir binding model utilizing global fitting algorithms. The dissociation or association equilibrium constant KD was calculated from the binding rate constants as KD=koff/kₒₙ (where koff and kₒₙ represent the dissociation kinetic constant and the association kinetic constant, respectively).
In assay [29] the target is T2, cynomolgus monkey SLITRK6 extracellular …. The description is as above.
Procedure: as §6
The target in assay [30] is T3, rat SLITRK6. Described as above.
Procedure: as §6
In assay [31] the target is T4, human SLITRK6 on cells. In words: flow cytometry on 293F-huSLITRK6 cells, PE-conjugated anti-human Fc.
Procedure: as §5

Where a chain is given by its changes, count along the chain named.

T5 sequence (Q8C110 23-609): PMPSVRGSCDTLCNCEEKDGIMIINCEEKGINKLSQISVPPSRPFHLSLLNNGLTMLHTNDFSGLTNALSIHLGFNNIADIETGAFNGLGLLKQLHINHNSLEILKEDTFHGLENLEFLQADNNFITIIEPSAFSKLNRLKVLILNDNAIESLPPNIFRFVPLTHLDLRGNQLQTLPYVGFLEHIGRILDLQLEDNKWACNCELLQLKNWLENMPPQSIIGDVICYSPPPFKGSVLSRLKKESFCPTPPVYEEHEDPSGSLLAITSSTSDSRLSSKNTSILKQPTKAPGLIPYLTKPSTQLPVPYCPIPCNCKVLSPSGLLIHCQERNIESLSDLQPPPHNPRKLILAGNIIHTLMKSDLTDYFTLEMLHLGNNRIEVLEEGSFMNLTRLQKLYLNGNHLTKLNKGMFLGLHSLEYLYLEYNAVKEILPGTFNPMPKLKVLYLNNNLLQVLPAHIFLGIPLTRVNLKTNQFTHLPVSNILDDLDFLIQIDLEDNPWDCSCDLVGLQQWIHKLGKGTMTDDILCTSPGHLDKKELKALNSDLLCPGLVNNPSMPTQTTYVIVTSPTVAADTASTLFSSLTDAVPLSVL
Procedure for mouse SLITRK6: as §6

B1: phA290 (antibody, V domains shown)
VH: QVQLVQSGAEVKKPGASVKVSCKASGYTFTSYYMHWVRQAPGQGLEWMGIINPSGGSTSYAQKFQGRVTMTRDTSTSTVYMELSSLRSEDTAVYYCARGFTRYFDYWGQGTLVTVSA
VL: EIVMTQSPGTLSLSPGERATLSCRASQSVSKYLAWYQQRPGQAPRLLIYDASNRATGIPARFSGSGSGTDFTLTVSSLEPEDFAVYYCQQRYNWPLTFGGGTTVEIK
notes: From phage display, then full-length construction; Only the variable regions are tied to the name
For B1, the EC50 is 0.09 nM in [1]; 0.06 nM in assay [2]; 0.18 nM in the assay with rat SLITRK6 [3]; 0.14 nM in the assay with human SLITRK6 on cells [4]; 0.14 nM with human SLITRK6 on cells [5]; 0.15 nM in the assay with human SLITRK6 on cells [6]. Besides, the concentration giving a half-maximal response (EC50) with human SLITRK6 on cells [7] came out at 0.27 nM; with human SLITRK6 on cells [8] it was 0.27 nM; with human SLITRK6 on cells [9] it was 0.14 nM; with human SLITRK6 on cells [10], 0.16 nM; with human SLITRK6 on cells [11], 0.08 nM; in the assay with human SLITRK6 on cells [12], 1.16 nM. For the same molecule, the response with human SLITRK6 on cells [13] was half-maximal at 1.16 nM (EC50). Also, the dissociation constant Kd in assay [14] was 1.06 nM; in assay [15], 3.14 nM.

B2: phA108 (antibody, V domains shown)
VH: QVQLVQSGAEVKKPGASVKVSCTASGYIFNDYYLHWVRQAPGQGLEWVGIINPSGGSPVYAQKFQGRVTMTRDTSTNTVYMELSSLRSEDTAVYYCARGMVRGVRLFDYWGQGTLVTVSA
VL: B1 VL with M4L, G9A, K31S, R39K, A43T, I58V, V75I, P80T, Y92T, T103K
notes: as for B1
On to B2, for which the 50% effective concentration (EC50) in [1] stood at 0.05 nM; in assay [2], 0.06 nM; in the assay with rat SLITRK6 [3], 0.29 nM; with human SLITRK6 on cells [4] it was 0.1 nM; with human SLITRK6 on cells [5], 0.12 nM; with human SLITRK6 on cells [6] it was 0.18 nM. Further, the concentration for a half-maximal effect (EC50) was determined as 0.27 nM with human SLITRK6 on cells [7]; 0.27 nM with human SLITRK6 on cells [8]; 0.14 nM with human SLITRK6 on cells [9]; 0.14 nM with human SLITRK6 on cells [10]; 0.1 nM in the assay with human SLITRK6 on cells [11]; 0.87 nM with human SLITRK6 on cells [12]. The molecule further came in with an EC50 with human SLITRK6 on cells [13] of 0.87 nM. Besides, the Kd in [14] is 1.05 nM; in assay [15], 4.69 nM. Also, the koff in assay [14] came out at 0.000969 s⁻¹; in [15], 0.00379 s⁻¹. Further, the on-rate constant (kon) in [14] is 924000 M⁻¹ s⁻¹; in assay [15], 809000 M⁻¹ s⁻¹. Further, the epitope binning signal came to 0.0346 in assay [16]; 0.0375 in assay [17]; 0.292 in assay [18]; 0.285 in [19]; 0.274 in [20]; 0.276 in [21].

B3: AGS15E (antibody, V domains shown)
VH: QVQLVESGGGVVQPGRSLRLSCAASGFTFSSYGMHWVRQAPGKGLEWVAVIWYDGSNQYYADSVKGRFTISRDNSKNTLFLQMHSLRAEDTAVYYCARGLTSGRYGMDWGQGTTVTVSS
VL: DIVMTQSPLSLPVTPGEPASISCRSSQSLLLSHGFNYLDWYLQKPGQSPQLLIYLGSSRASGVPDRFSGSGSGTDFTLKISRVEAEDVGLYYCMQPLQIPWTFGQGTKVEIK
modifications: drug conjugate; drug-linker and positions not given
notes: also called ADC of Sirtratumab
For B3, the “EC50 (read off the curve)” value in the assay with human SLITRK6 on cells [22] is approximately 0.3 nM; with human SLITRK6 on cells [23], approximately 0.3 nM; with human SLITRK6 on cells [24], approximately 0.3 nM; with human SLITRK6 on cells [25] it was approximately 0.2 nM; with human SLITRK6 on cells [26], approximately 0.2 nM; in the assay with human SLITRK6 on cells [27], approximately 0.5 nM. In the assay with human SLITRK6 on cells [31], the “EC50 (read off the curve)” value is approximately 1 nM. For the same molecule, the Kd with mouse SLITRK6 amounted to 1.9 nM; in assay [28], 0.3 nM; in assay [29] it was 0.87 nM; with rat SLITRK6 [30], 1.2 nM.

B4: hu1H2-03-LD343 (8) (antibody, V domains shown)
VH: EVQLVESGGGLVQPGGSLRLSCAASGFTFSDYGLHWVRQAPGKGLEWVSYISSGSSTVYFADTLKGRFTISRDNAKNSLYLQMNSLRAEDTAVYYCTRGTWYFDVWGRGTLVTVSS
VL: DIQMTQSPSSLSASVGDRVTITCRTSENIHSYLAWYQQKPGKSPQLLVYNAKTLADGVPSRFSGSGSGTDYTLTISSLQPEDFGTFYCQHFWTTSRTFGGGTKVEIK
modifications: drug-linker LD343 on cysteines freed by TCEP reduction, DAR 8.0; positions not given
For B4, the concentration giving a half-maximal response (EC50 (read off the curve)) with human SLITRK6 on cells [23] is approximately 0.4 nM; in the assay with human SLITRK6 on cells [25] it was approximately 0.3 nM.

B5: hu14G1-03 (antibody, V domains shown)
VH: EVQLVESGGGLVQPGGSLRLSCAASGFTFSDYGMHWVRQAPGKGLEWVSYISPGSSTIYYADTMKGRFTISRDNAKNSLYLQMNSLRAEDTAVYYCARAYGGSYWYFAVWGQGTLVTVSS
VL: B4 VL with T25A, E27G, F86Y, T93S, S95P, R96Y, V104L
Turning to B5, the EC50 was 0.04 nM in assay [1]; 0.04 nM in [2]; 0.32 nM in the assay with human SLITRK6 on cells [4]; 0.38 nM in the assay with human SLITRK6 on cells [5]; 0.44 nM with human SLITRK6 on cells [6]; 0.61 nM in the assay with human SLITRK6 on cells [7]. Besides, the concentration for a half-maximal effect (EC50) was 0.62 nM in the assay with human SLITRK6 on cells [8]; 0.33 nM with human SLITRK6 on cells [9]; 0.37 nM with human SLITRK6 on cells [10]; 0.35 nM in the assay with human SLITRK6 on cells [11]; 1.77 nM with human SLITRK6 on cells [12]; 1.77 nM with human SLITRK6 on cells [13]. For the same molecule, the Kd in assay [14] is 0.212 nM; in [15], 0.965 nM. Moreover, the results for the koff in assay [14] and in assay [15] were 8.26e-05 s⁻¹ and 0.000329 s⁻¹, respectively. Besides, the figures for the association rate constant (kon) in assay [14] and in assay [15] were 390000 M⁻¹ s⁻¹ and 341000 M⁻¹ s⁻¹, respectively. The epitope binning signal amounted to 0.323 in [16]; 0.326 in [17]; 0.0244 in [18]; 0.0268 in [19]; 0.0192 in assay [20]; 0.293 in assay [21].
